We go through 131 substances from the supplement of paper PMC12042874.

± gives the uncertainty stated by the source.

The nature of this data set: amyloid nucleation score (Sup35N fusion, yeast selection) (log enrichment); library NNK3; higher = more nucleation; inactive = no reads after selection. An outline of the steps: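 Libraries of peptides of 20 random codons fused to Sup35N were expressed in psi-negative yeast and induced 24 hours with 100 μM copper sulfate. Selection was 7 days at 30°C on medium lacking adenine and uracil, and plasmid inserts were Illumina-sequenced before and after selection. Nucleation score is the DiMSum log enrichment of output over input reads, centred on the mode score of non-aggregating sequences, and sequences with under 100 input reads were left out.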
With NYKRTLEESN, the amyloid nucleation score worked out at 1.17 ± 0.18.

Take RILCRVRYM: the amyloid nucleation score result is “inactive”.

Regarding PSTVTFRWFIVVSPLRHWFA, the amyloid nucleation score entry is “inactive”. MTNLCRRVGKKFPNRSHSGY: the amyloid nucleation score result is “inactive”. For GSLMRVLLFEYLMDTCLWIV, the amyloid nucleation score entry was “inactive”. SDTLYFVCSVTWQRFYKMID: the amyloid nucleation score entry was “inactive”. The substance LLFLNFTICCYSFRKGMHGF registered an amyloid nucleation score of -0.344 ± 0.32. In the case of NKQNEVSRSCLSRCRYFGGD it was “inactive”; in that of CRDNTGFCRGSAAVFNRCTG, “inactive”. With RHCWVPGCDRQCKWYFEGTS, the amyloid nucleation score result is “inactive”.

As for YKDIRCGWLMFGVANLQ, the amyloid nucleation score result is “inactive”. The substance HSYTVWLVNMS returned an amyloid nucleation score of 2.35 ± 0.077. Regarding KFPWT, the amyloid nucleation score result was “inactive”. Take TPRQFSDGCISFNKVTINPQ: the amyloid nucleation score is 0.704 ± 0.34. Regarding LLRKRHVLNTK, the amyloid nucleation score entry was “inactive”. With YSVVDEKVALSSSWHSCLPL, the amyloid nucleation score result was “inactive”.

As for RIKLRLFTTHEYCSRDRCSD, the amyloid nucleation score result is “inactive”. Turning to ELNRDDCEGSSATPQRDFNV, the amyloid nucleation score result was “inactive”. In the case of PLWAYKYVPGFYRVFKVCLM, the amyloid nucleation score result was “inactive”. As for DFSFSIRVGSSALGVSKNTE, the amyloid nucleation score worked out at 1.31 ± 0.093. For IYQWTEFCGRIFQSCRMVLC, the amyloid nucleation score entry is “inactive”.

For the substance KIFVSFNKSKLEVHPPLKVI, the amyloid nucleation score entry was “inactive”. As for QTMLIM, the entry is “inactive”. As for AYIFIWWKGANKFVSFNKII, the figure is 0.684 ± 0.27; as for LVASSYS, “inactive”; as for KGGTLRRLTLSGTGTSQPSE, “inactive”. Turning to PVAMAYAVSSVVDMASN, the amyloid nucleation score entry is “inactive”.

Regarding FLEWEGFRVCIENHMELLRF, the amyloid nucleation score entry was “inactive”. Consider CQYRVTSYHSSWFFSEAMHP, for which the amyloid nucleation score is -0.268 ± 0.7. As for RIKSSTYSMSLVGAQ, the entry is “inactive”; as for SWSRYYCLYCG, 2.97 ± 0.068; as for KCMCNLRSMFASCLYTCVVI, “inactive”.

In the case of IRTIIQKKMWACDHVFGSPA, the amyloid nucleation score entry is “inactive”. With LRYLIYTNYFRLFAWLNSCK, the amyloid nucleation score entry was “inactive”. As for DVMSEFLFKYWVVNQQCFTR, the entry is “inactive”; as for GTYPSKIKGFTLKGNLR, “inactive”; as for NMNCCLKMSVYLYRLLVHM, “inactive”. For the substance QLTLACSRLQAGLSSQRHLS, the amyloid nucleation score entry is “inactive”. For NRVMSVLF, the amyloid nucleation score entry is “inactive”.

The substance SSSGY registered an amyloid nucleation score of -0.007 ± 1. In the case of YSIKNGYGFRQSWYKQVLKL it was “inactive”. For WLFYLT, the amyloid nucleation score result was “inactive”. Turning to LFTELGSILF, the amyloid nucleation score entry was “inactive”. With LIYRLGNVHVPKYW, the amyloid nucleation score result was “inactive”. Turning to FLGSLDFVSIKCQITHVRTS, the amyloid nucleation score entry was “inactive”. Take ELIAIRRSNFHKKFLLNLYC: the amyloid nucleation score entry was “inactive”. As for MYDGKNWQLAQ, the amyloid nucleation score entry was “inactive”. Regarding GIYFDSGLRGWHSLNHRCRR, the amyloid nucleation score is 0.132 ± 0.59. As for CYSPQFVCYATGHVKSDLML, the amyloid nucleation score result was “inactive”. In turn, PTAESPLMPFNA gave an amyloid nucleation score of -0.478 ± 0.69. As for YLLLDYGTRSFLYDRYRYIR, the figure is 0.067 ± 0.68; as for SILLVFHFKANVCLVFT, “inactive”; as for AGAGLNKLSVLTVTTLLMIL, “inactive”. Turning to EDLMLVQF, the amyloid nucleation score result is “inactive”. On to SWNTL, for which the amyloid nucleation score entry was “inactive”. As for SNPGSALDIMGTNQIYPSQH, the entry is “inactive”; as for CGFDMY, 1.84 ± 0.094; as for VGYAGVIIEKKYHCPKKSAF, “inactive”. As for SAGIIFCMKSLVFSFLFITL, the entry is “inactive”.

Regarding DYNILQSRMSYRAYMCSLHV, the amyloid nucleation score result is “inactive”. KLFWMIVCGVLNLNSNNYGG showed an amyloid nucleation score of 2.57 ± 0.084. On to HCGRTEKDGQLCCENLSGFS, for which the amyloid nucleation score result was “inactive”. For YKQHYRRSRHCIKHYVGGSE, the amyloid nucleation score result is “inactive”. On to EYNPTYYFYRTFMAFFLKMI, for which the amyloid nucleation score entry was “inactive”. As to HSPKPKGWFDGTNSRDGKLY, the amyloid nucleation score result was “inactive”. On to MYLVR, for which the amyloid nucleation score entry is “inactive”. In the case of RFMQWGIFS it was “inactive”. Turning to ISHFTARFVSPPMQWLRTCF, the amyloid nucleation score entry was “inactive”. The substance CLYNGMWSCVEWNSKGSMHL had an amyloid nucleation score of 1.26 ± 0.069. For the substance YRGKIGTWECGVISYETAAT, the amyloid nucleation score result is “inactive”. As to SLFGVNGMSAPGRRDV, the amyloid nucleation score turned out to be 0.589 ± 0.31. With THANEGRCYMVSSVMEVSPL, the amyloid nucleation score entry is “inactive”. In the case of IIRSGGNGLCSTKYLSSHFL, the amyloid nucleation score entry was “inactive”. Consider GCISVVSL, for which the amyloid nucleation score result is “inactive”.

With YIRIDTGLLCVCGLSQEGVV, the amyloid nucleation score entry is “inactive”. VNLSFNCWFDVVCVSSRF registered an amyloid nucleation score of 1.9 ± 0.07. In the case of LGVTGINSVIYMYEMVS it was “inactive”. For the substance WILFCKNGAVTNLLVWECLC, the amyloid nucleation score result is “inactive”.

Regarding RFRMHIIYKRKGIACVRSTS, the amyloid nucleation score entry was “inactive”. As for PGMISSQGSYTFRAWAVSLR, the amyloid nucleation score entry was “inactive”. Take SGTSFISTKFSISLSIWLTA: the amyloid nucleation score entry was “inactive”.

RIGQMFLILVFKGLL: the amyloid nucleation score result was “inactive”. For the substance HMEYLKQLFFRTVLFTDQSV, the amyloid nucleation score result was “inactive”.

For the substance EEMVSDRVRMLVTINHR, the amyloid nucleation score was 0.661 ± 0.27.

For the substance CLPWHWMLNYFGYKNVKS, the amyloid nucleation score result was “inactive”. YFNLPISW: the amyloid nucleation score was -0.316 ± 0.7. For the substance PYQDIMNSQESGGDE, the amyloid nucleation score result was “inactive”. SARISNAVNDSFTGKTMYNK: the amyloid nucleation score entry was “inactive”.

Regarding NTFTPVFLTSKYSMRYGLIM, the amyloid nucleation score entry is “inactive”. Regarding WRFQQQAFRYNWPWVILLLV, the amyloid nucleation score entry is “inactive”. Regarding YFVFKIRKDVELLVYI, the amyloid nucleation score result is “inactive”. For LLGRSLH, the amyloid nucleation score result was “inactive”.

The substance GRMFVNVNFAIQCYMAFTYL displayed an amyloid nucleation score of 2.42 ± 0.071. As to YFYLSICDVSMVGSEFIYSR, the amyloid nucleation score turned out to be 0.373 ± 0.2. Turning to IQMGGWIIMYSAGCGA, the amyloid nucleation score entry is “inactive”. Consider WSLNWLMTFGLIYRQFSHLY, for which the amyloid nucleation score entry was “inactive”. In the case of STGWSMLVFRTRCYLFSFSG it was “inactive”; in that of SRRFYLYYFCWYSVVMFIHG, “inactive”; in that of VSHNSCGQTAESLNNFKTWS, “inactive”. Turning to ASQDI, the amyloid nucleation score entry is “inactive”. As for TVHTNLCAMLMFTGYF, the entry is “inactive”; as for VFDYADDYYTVNGTVLSPAE, -0.283 ± 0.32. For LPKCGPRYFDWLNAPEDCMF, the amyloid nucleation score entry was “inactive”. In turn, IWVLSCRLISRTRFICDRRM registered an amyloid nucleation score of 0.057 ± 0.93. As for ISCYLSDPVYS, the figure is -0.493 ± 1; as for NQYLLCMLMWNARSGSRSMI, “inactive”. Turning to QNRLQTSFMVGQRGNTLVTN, the amyloid nucleation score result was “inactive”. For the substance KWRYLFDMSW, the amyloid nucleation score result was “inactive”.

Take DNRYVY: the amyloid nucleation score entry is “inactive”.

For LVYSDCHRIISHWFFRYTWQ, the amyloid nucleation score entry was “inactive”. With NESISPFVTKRHPEFMRFNC, the amyloid nucleation score entry is “inactive”. Take NQWLCLHLCQR: the amyloid nucleation score result was “inactive”.

On to GYCGQVCWFNAKSWMKRMTF, for which the amyloid nucleation score entry was “inactive”. In the case of RSEWQMTRNYRVWGCYI it was “inactive”; in that of MNFPR, “inactive”; in that of ACSVHFFHARW, 1.49 ± 0.14. On to HFYYPLCWVCSVLLSHLVPD, for which the amyloid nucleation score result was “inactive”.

As to FTSEAPIKVQHWVYTSLPSV, the amyloid nucleation score result was “inactive”. Regarding PINETRSEESLVGSRGM, the amyloid nucleation score entry is “inactive”. LWMCLLMRRR: the amyloid nucleation score result was “inactive”. As for LFFSNT, the entry is “inactive”. IFSMMLF: the amyloid nucleation score entry was “inactive”.

For the substance NFFRDSGRMCHPKGIGDRWT, the amyloid nucleation score result is “inactive”. On to ITSFFESHTVQVYAFYIRVF, for which the amyloid nucleation score entry is “inactive”. Take LTSGVNRISQQPWLSLVDIG: the amyloid nucleation score result is “inactive”. On to TIGSAWFGKLGDGLALFGLF, for which the amyloid nucleation score entry is “inactive”. Regarding IMYTRAYLFYTRDHCLFIRV, the amyloid nucleation score result is “inactive”. As to VRNWTDD, the amyloid nucleation score result was “inactive”. On to ILTLLCRFTYRDETPCLWTV, for which the amyloid nucleation score result is “inactive”. For GPGSYWEMRTN, the amyloid nucleation score entry is “inactive”.

For the substance RLRLYFRLTKNFHSMNHW, the amyloid nucleation score result was “inactive”.
